{
  "source": "paper PMC7801617",
  "about": "“Cancer associated talin point mutations disorganise cell adhesion and migration” (Scientific Reports, 2021)",
  "binders": {"B1": {"name": "RIAM (4–30) peptide (peptide)", "peptide": "SEDIDQMFSTLLGEMDLLTQSLGVDTC", "modifications": "also: BODIPY or Fluorescein dye coupled via C-terminal Cys", "notes": "RIAM, mouse, printed as residues 4–30; added C-terminal cysteine for coupling of the dye; also called RIAM peptide; LD-motif of RIAM; source: synthetic peptide (GLBiochem, China)"}, "B2": {"name": "talin-1 R13–DD fragment, wildtype (residues 2300–2541) (domain or fragment, mouse, UniProt P26039 2300-2541, looked up)", "chain": "DPTVIAENELLGAAAAIEAAAKKLEQLKPRAKPKEADESLNFEEQILEAAKSIAAATSALVKAASAAQRELVAQGKVGAIPANALDDGQWSQGLISAARMVAAATNNLCEAANAAVQGHASQEKLISSAKQVAASTAQLLVACKVKADQDSEAMKRLQAAGNAVKRASDNLVKAAQKAAAFEDQENETVVVKEKMVGGIAQIIAAQEEMLRKERELEEARKKLAQIRQQQYKFLPSELRDEH", "notes": "talin-1, mouse, R13 and dimerisation domain (DD), residues 2300–2541; Constitutive dimer by SEC–MALS; also called R13–DD WT; Talin R13–DD wildtype; source: E. coli BL21 (DE3), purified (HisTrap HP, HiTrap Q HP anion exchange)"}, "B3": {"name": "vinculin Vd1 domain (residues 1–258) (domain or fragment, UniProt P12003 1-258, looked up)", "chain": "MPVFHTRTIESILEPVAQQISHLVIMHEEGEVDGKAIPDLTAPVSAVQAAVSNLVRVGKETVQTTEDQILKRDMPPAFIKVENACTKLVRAAQMLQADPYSVPARDYLIDGSRGILSGTSDLLLTFDEAEVRKIIRVCKGILEYLTVAEVVETMEDLVTYTKNLGPGMTKMAKMIDERQQELTHQEHRVMLVNSMNTVKELLPVLISAMKIFVTTKNTKSQGIEEALKNRNFTVEKMSAEINEIIRVLQLTSWDEDAW", "notes": "vinculin, Vd1 domain, residues 1–258"}},
  "key": {"[1]": {"target": "T1, talin-1 R7–R8 fragment (residues 1355–1652) with mutation Y1389C (mouse, UniProt P26039 1355-1652, Y1389C)", "T1 construct": "talin-1, mouse, R7–R8 domains, residues 1355–1652, with Y1389C; The mutation is a somatic mutation of human cancers (COSMIC), put into the mouse talin-1 fragment by site-directed mutagenesis; also called R7–R8 Y1389C; source: E. coli BL21 (DE3), purified (HisTrap HP, HiTrap Q HP anion exchange)", "T1 sequence (P26039 1355-1652 Y1389C)": "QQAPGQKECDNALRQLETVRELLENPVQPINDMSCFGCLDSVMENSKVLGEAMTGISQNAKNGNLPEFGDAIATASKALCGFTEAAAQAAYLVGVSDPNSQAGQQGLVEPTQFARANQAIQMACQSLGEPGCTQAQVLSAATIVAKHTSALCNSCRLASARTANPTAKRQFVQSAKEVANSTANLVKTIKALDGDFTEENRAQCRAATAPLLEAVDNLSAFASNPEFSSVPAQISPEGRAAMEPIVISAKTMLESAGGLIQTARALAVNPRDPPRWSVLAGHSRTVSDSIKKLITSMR", "test": "fluorescence polarisation; R7–R8 protein serially diluted from 60 µM with KANK1 (30–68) peptide at 1 µM, and from 75 µM with RIAM (4–30) peptide at 1 µM; 20 °C; CLARIOstar plate reader; one-site total binding equation", "conditions": "both partners purified"}, "[2]": {"target": "T2, talin-1 R7–R8 fragment, wildtype (residues 1355–1652) (mouse, UniProt P26039 1355-1652)", "T2 construct": "talin-1, mouse, R7–R8 domains, residues 1355–1652, made from full-length mouse talin-1 as template; also called R7–R8 WT; Wildtype R7–R8; source: E. coli BL21 (DE3), purified (HisTrap HP, HiTrap Q HP anion exchange)", "T2 sequence (P26039 1355-1652)": "as the sequence (P26039 1355-1652 Y1389C) above, with C35Y counted along it", "test": "fluorescence polarisation; R7–R8 protein serially diluted from 60 µM with KANK1 (30–68) peptide at 1 µM, and from 75 µM with RIAM (4–30) peptide at 1 µM; 20 °C; CLARIOstar plate reader; one-site total binding equation", "conditions": "both partners purified"}, "[3]": {"target": "T3, talin-1 R7–R8 fragment (residues 1355–1652) with mutation R1368W (mouse, UniProt P26039 1355-1652, R1368W)", "T3 construct": "talin-1, mouse, R7–R8 domains, residues 1355–1652, with R1368W; The mutation is a somatic mutation of human cancers (COSMIC; also in the 1000 Genomes database), put into the mouse talin-1 fragment by site-directed mutagenesis; also called R7–R8 R1368W; source: E. coli BL21 (DE3), purified (HisTrap HP, HiTrap Q HP anion exchange)", "T3 sequence (P26039 1355-1652 R1368W)": "as the sequence (P26039 1355-1652 Y1389C) above, with R14W, C35Y counted along it", "test": "fluorescence polarisation; R7–R8 protein serially diluted from 60 µM with KANK1 (30–68) peptide at 1 µM, and from 75 µM with RIAM (4–30) peptide at 1 µM; 20 °C; CLARIOstar plate reader; one-site total binding equation", "conditions": "both partners purified"}, "[4]": {"target": "the molecule itself", "test": "SEC-MALS; 100 μM protein, room temperature, Superdex 75 column; Viscotek SEC–MALS 9 and RI detector; dimer or monomer"}, "[5]": {"target": "T1, talin-1 R7–R8 fragment (residues …)", "test": "SEC; Vd1 and talin R7–R8 incubated at a 2:1 ratio at a concentration of 100 µM, analysed at room temperature; elution fractions on SDS-PAGE", "conditions": "both partners purified"}, "[6]": {"target": "T2, talin-1 R7–R8 fragment, wildtype …", "test": "SEC; Vd1 and talin R7–R8 incubated at a 2:1 ratio at a concentration of 100 µM, analysed at room temperature; elution fractions on SDS-PAGE", "conditions": "both partners purified"}, "[7]": {"target": "T3, talin-1 R7–R8 fragment (residues …)", "test": "SEC; Vd1 and talin R7–R8 incubated at a 2:1 ratio at a concentration of 100 µM, analysed at room temperature; elution fractions on SDS-PAGE", "conditions": "both partners purified"}},
  "note": "No end group written: not given here.",
  "data": [
    {"binder": "B1", "values": [
      {"measurement": "binding result", "setting": "[1]", "result": "binds"},
      {"measurement": "binding result", "setting": "[2]", "result": "binds"},
      {"measurement": "binding result", "setting": "[3]", "result": "binds"}
    ]},
    {"binder": "B2", "values": [
      {"measurement": "stoichiometry N", "setting": "[4]", "result": 2}
    ]},
    {"binder": "B3", "values": [
      {"measurement": "stoichiometry N", "setting": "[5]", "result": 2},
      {"measurement": "stoichiometry N", "setting": "[6]", "result": 1},
      {"measurement": "stoichiometry N", "setting": "[7]", "result": 1}
    ]}
  ]
}
